For assay [1], the target named is BTV-15-VP5-Δ43-Nhis, unlabelled (Bluetongue virus serotype 15). Description: crystal structure; low pH crystal form: 1.0 M sodium chloride, 0.1 M Tris (pH 6.0), 20 °C; space group H3; native protein.
For assay [2], the target named is BTV-15-VP5-Δ43-Nhis, seleno-methionyl-derivatised (Bluetongue virus serotype 15). As to the kind of experiment: crystal structure; high pH crystal form: 0.09 M sodium formate, 6.6% PGA-LM, 0.1 M Tris (pH 9.0), 20 °C; space group P1, nine subunits in the asymmetric unit; Se-Met protein.

From article PMC11335306 come the findings set out here.

For the substance “BTV-15-VP5-Δ43-Nhis, unlabelled (domain or fragment)”, the stoichiometry N in assay [1] came to 3.

Turning to “BTV-15-VP5-Δ43-Nhis, seleno-methionyl-derivatised (domain or fragment)”, the stoichiometry N in assay [2] is 3.

As usually defined, the stoichiometry N is a count of units in the complex or per binding partner.
